Measured values: paper doi:10.1101/2025.06.26.661714

Target: biotin-conjugated Aβ_(1-40)
Assay: ELISA

B1: solanezumab-Im7 wild-type (solanezumab Fab conjugated to Immunity protein 7) (Fab, V domains shown)
VH: EVQLVESGGGLVQPGGSLRLSCAASGFTFSRYSMSWVRQAPGKGLELVAQINSVGSSTYYPDTVKGRFTISRDNAKNTLYLQMNSLRAEDTAVYYCASGDYWGQGTLVTVSS
VL: DVVMTQSPLSLPVTLGQPASISCRSSQSLIYSDGNAYLHWFLQKPGQSPRLLIYKVSNRFSGVPDRFSGSGSGTDFTLKISRVEAEDVGVYYCSQSTHVPWTFGQGTKVEIK
B1 was tested. Which EC50 did it give?
The EC50 was 3.5 nM.
